Results from publication PMC7923638 (BMC Biotechnology, 2021).

Assays:
CsSDC = target: T1, CsSDC (Camellia sinensis, UniProt A0A4S4DBB3); experiment: decarboxylase activity with and without […] PLP, UPLC; type: biochemical; details: 20 mM serine, 40 °C, pH 7.0
T1 construct: gene SerDC; about 75 kDa on SDS-PAGE

purified protein = substrate: C[C@H](N)C(=O)O; experiment: purified protein; details: 45 °C, pH 8.0, 100 mM potassium phosphate, 0.1 mM PLP, 5 mM DTT, 1 mM K2EDTA, 10% glycerol, 1-100 mM substrate

T1 sequence (A0A4S4DBB3 entry or part of it): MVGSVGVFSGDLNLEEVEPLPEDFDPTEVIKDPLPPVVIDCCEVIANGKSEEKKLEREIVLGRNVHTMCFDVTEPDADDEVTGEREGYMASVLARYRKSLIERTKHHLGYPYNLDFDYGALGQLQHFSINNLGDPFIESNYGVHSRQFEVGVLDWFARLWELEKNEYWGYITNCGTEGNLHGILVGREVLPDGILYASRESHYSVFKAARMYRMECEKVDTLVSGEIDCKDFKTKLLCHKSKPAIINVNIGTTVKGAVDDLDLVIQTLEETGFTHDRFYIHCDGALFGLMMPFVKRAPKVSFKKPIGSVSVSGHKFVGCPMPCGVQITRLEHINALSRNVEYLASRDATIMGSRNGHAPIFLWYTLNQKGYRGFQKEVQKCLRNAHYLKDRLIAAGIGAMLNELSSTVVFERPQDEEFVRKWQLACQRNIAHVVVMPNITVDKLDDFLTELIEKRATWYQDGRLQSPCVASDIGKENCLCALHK

| Molecule | decarboxylase activity with and without 0.1 mM PLP, UPLC (CsSDC) | Km (purified protein) [mM] | Vmax (purified protein) [µmol/min/mg] |
| --- | --- | --- | --- |
| Cc1ncc(COP(=O)(O)O)c(C=O)c1O [pyridoxal-5′-phosphate] | activities of CsAlaDC and CsSDC are significantly dependent on the presence of PLP | – | – |
| CsAlaDC (Camellia sinensis var. sinensis) (protein) MEGTVSVLSNVSKVELLSKCFDLITIPVEPLPPVVASNGVAGGETKNMKERDIVLGKNVHTTSLTITEPDVDDDSTSDMEAFMAGVLVRYRKTLIEKTKYHLGYPFNLDLDYGPLAELQHFAINNLGDPFIESNYGVHSRQFEVGVLDWFARLWEIEQKEYWGYITNGGTEGNLHGILIGREVFPDGIFYTSRESHYSIFKAARMYRMECVKVGTLINGEIDCADFKAKLLSNKDKPAIINLNIGTTVKGAVDDIDLVIQTLEECGFSHDRFYIHCDGALFGFMMPFLNRGPKITFKKPIGSVSVSGHKFMGCPTPCGVQITRLEHINALSRNVEYLASRDATITGSRNGHSPIILWYALNRKGFKGFQKEVQKCLRNAHYLKDRLREAGISAMLNELSSTVVFERPLDEEFVRRWQLACEGNMAHVIVMPNVTIEKLDEFLNELVQKRANWYNDGKAGPPCLAPDIGSENCDCDLHK | – | 33.25 | 3470 |
